Measured values taken from article PMC5087658, “Essential role of the Dishevelled DEP domain in a Wnt-dependent human-cell-based complementation assay” (Journal of Cell Science, 2016).
Residue numbers refer to the chain shown, from its start. In names and notes the source's numbering stands. Several values for one entry are separate records, joined by “and”; a condition that tells them apart may be missing. Equal entries are not always repeated. Each block holds one molecule with its values, some of them ahead of it.

What was measured:
SNAP–FZD5 = SNAP–FZD5 (UniProt Q13467); test: FZD5-dependent recruitment of DEP-GFP to the plasma membrane, cells scored by fluorescence microscopy; conditions: HEK293T cells, 100 cells scored in each case, read off a plot; for other: % of cells with no FZD5 recruitment: parent: est. 12; for other: % of cells with weak FZD5 recruitment: parent: est. 36; for other: % of cells with strong FZD5 recruitment: parent: est. 52
Chain of SNAP–FZD5 (Q13467 27-585): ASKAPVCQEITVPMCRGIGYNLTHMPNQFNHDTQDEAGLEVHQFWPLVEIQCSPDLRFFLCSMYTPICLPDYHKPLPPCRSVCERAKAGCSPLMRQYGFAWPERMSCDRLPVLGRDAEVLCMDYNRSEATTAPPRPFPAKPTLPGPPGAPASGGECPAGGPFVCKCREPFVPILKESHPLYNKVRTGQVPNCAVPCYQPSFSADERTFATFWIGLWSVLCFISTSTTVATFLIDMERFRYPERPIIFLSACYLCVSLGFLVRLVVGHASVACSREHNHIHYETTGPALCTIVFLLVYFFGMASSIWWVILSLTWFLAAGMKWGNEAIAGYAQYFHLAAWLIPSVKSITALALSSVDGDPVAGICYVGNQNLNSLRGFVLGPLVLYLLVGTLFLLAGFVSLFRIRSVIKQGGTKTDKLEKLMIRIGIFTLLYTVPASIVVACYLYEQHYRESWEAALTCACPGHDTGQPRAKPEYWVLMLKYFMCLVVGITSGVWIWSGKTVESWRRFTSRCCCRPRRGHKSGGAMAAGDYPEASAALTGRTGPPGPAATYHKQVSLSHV

[1] = molecular target: the molecule itself; test: SEC-MALS; phosphate-buffered saline, GE Superdex S-200 10/300 analytical column; unfractionated purified Lip–DEP
[2] = molecular target: the molecule itself; test: SEC-MALS; not shown; tetramerisation of the K446M DEP domain
[3] = molecular target: T1, DVL2 PDZ domain (PDZ_(265-361)), wt, 15N-labelled (human, UniProt O14641 265-361, 15N-labelled); test: NMR titration; 1H-15N correlation spectra (fast-HSQC or BEST-TROSY) of 100 µM 15N-PDZ alone or with 3x molar excess (300 µM) of DVL-C or Lip–FZD peptide; 298 K, aqueous phosphate buffer at physiological ionic strength, pH 6.7; conditions: both partners purified
T1 construct: Dishevelled 2 (DVL2), human, PDZ domain, residues 265-361; Tag was followed by the linker ENLYFQS (TEV site); also called wt 15N-PDZ; minimal PDZ domain of DVL2; source: E. coli BL21-CodonPlus(DE3)-RIL, purified (NiNTA), Lip tag cleaved with TEV protease; not shown: His6, N-terminal, cleaved; Lip, N-terminal, cleaved
T1 sequence (looked up): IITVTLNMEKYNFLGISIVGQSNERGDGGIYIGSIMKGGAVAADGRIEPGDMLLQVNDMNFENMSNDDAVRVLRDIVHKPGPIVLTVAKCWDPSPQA

Molecule: DEP–GFP, wt (minimal DEP domain of DVL2) (from UniProt O14641) I447F
- other: % of cells with no FZD5 recruitment (SNAP–FZD5): 8 % of cells
- other: % of cells with weak FZD5 recruitment (SNAP–FZD5): 34 % of cells
- other: % of cells with strong FZD5 recruitment (SNAP–FZD5): 58 % of cells

B1: Lip–DEP_(417-511), DVL2 DEP domain, wt (domain or fragment, human, UniProt O14641 417-511, looked up)
chain: LSVHTDMASVTKAMAAPESGLEVRDRMWLKITIPNAFLGSDVVDWLYHHVEGFPERREARKYASGLLKAGLIRHTVNKITFSEQCYYVFGDLSGG
notes: Dishevelled 2 (DVL2), human, DEP domain, residues 417-511; Between the 6xHis-Lip tag and the domain stands the linker ENLYFQS (TEV site); also called wt DEP domain; DVL2 DEP_(417-511); source: E. coli BL21-CodonPlus(DE3)-RIL, purified (NiNTA); not shown: Lip, N-terminal, kept
- stoichiometry N [1]: 2 and 4

B2: Lip–DEP_(417-511) I447M (domain or fragment, human, UniProt O14641 417-511, looked up)
chain: B1 chain with I31M
notes: Dishevelled 2 (DVL2), human, DEP domain, residues 417-511, with I447M; also called tetramerisation mutant; source: E. coli BL21-CodonPlus(DE3)-RIL, purified (NiNTA)
- stoichiometry N [1]: 2

B3: Lip–DEP_(417-511) I447T (domain or fragment, human, UniProt O14641 417-511, looked up)
chain: B1 chain with I31T
notes: Dishevelled 2 (DVL2), human, DEP domain, residues 417-511, with I447T; also called tetramerisation mutant; source: E. coli BL21-CodonPlus(DE3)-RIL, purified (NiNTA)
- stoichiometry N [1]: 2

B4: Lip–DEP_(417-511) K446M (domain or fragment, human, UniProt O14641 417-511, looked up)
chain: B1 chain with K30M
notes: Dishevelled 2 (DVL2), human, DEP domain, residues 417-511, with K446M; source: E. coli BL21-CodonPlus(DE3)-RIL, purified (NiNTA)
- stoichiometry N [2]: 4

B5: Lip–DEP_(417-511) I447F (domain or fragment, human, UniProt O14641 417-511, looked up)
chain: B1 chain with I31F
notes: Dishevelled 2 (DVL2), human, DEP domain, residues 417-511, with I447F; also called tetramerisation mutant; source: E. coli BL21-CodonPlus(DE3)-RIL, purified (NiNTA)
- stoichiometry N [1]: 2

Second part, the molecule after the results:

- other: % of cells with no FZD5 recruitment (SNAP–FZD5): 75 % of cells
- other: % of cells with weak FZD5 recruitment (SNAP–FZD5): 22 % of cells
- other: % of cells with strong FZD5 recruitment (SNAP–FZD5): 3 % of cells
Molecule: DEP–GFP, wt (minimal DEP domain of DVL2) (from UniProt O14641) K446M

- other: % of cells with no FZD5 recruitment (SNAP–FZD5): 7 % of cells
- other: % of cells with weak FZD5 recruitment (SNAP–FZD5): 32 % of cells
- other: % of cells with strong FZD5 recruitment (SNAP–FZD5): 61 % of cells
Molecule: DEP–GFP, wt (minimal DEP domain of DVL2) (from UniProt O14641) I447T

- other: % of cells with no FZD5 recruitment (SNAP–FZD5): 7 % of cells
- other: % of cells with weak FZD5 recruitment (SNAP–FZD5): 41 % of cells
- other: % of cells with strong FZD5 recruitment (SNAP–FZD5): 52 % of cells
Molecule: DEP–GFP, wt (minimal DEP domain of DVL2) (from UniProt O14641) I447M

- other: % of cells with no FZD5 recruitment (SNAP–FZD5): 80 % of cells
- other: % of cells with weak FZD5 recruitment (SNAP–FZD5): 20 % of cells
Molecule: DEP–GFP, wt (minimal DEP domain of DVL2) (from UniProt O14641) L445E

- binding result [3]: binds
B6: C-terminal peptide from Dvl1 (DVL-C) (peptide)
peptide: SEFFVDVM
notes: C-terminal peptide of Dishevelled 1 (Dvl1); Lee et al., 2015; also called DVL-C peptide; source: kindly provided by Jie Zheng (University of California, Los Angeles)
